Reference: publication PMC12140320, “MeCP2 Lactylation Protects against Ischemic Brain Injury by Transcriptionally Regulating Neuronal Apoptosis”

B1: human-Pdcd4 mCpG probe (dsDNA)
DNA 1: GCGCATGCGCCCTCCCGCGCCCCTCCCC
DNA 2: GGGGAGGGGCGCGGGAGGGCGCATGCGC
modifications: 5-methyl-dC at CpG, both strands; printed '(5-Methyl dC)CG' read as mCG to match the unmethylated probe
B2: human-Pla2g6 mCpG probe (dsDNA)
DNA 1: GCGCATGCGCCCTCCCGCGCCCCTCCCC
DNA 2: GGGGAGGGGCGCGGGAGGGCGCATGCGC
modifications: 5-methyl-dC at CpG, both strands; printed sequence identical to human-Pdcd4 probe (possible error in paper)

Molecular target: MeCP2 WT (human) (Homo sapiens, UniProt P51608 1-486)
Assay: EMSA; 50-100 nM protein; EMSA: 10 mM HEPES pH 7.6, 50 mM KCl, 1 mM EDTA, 0.05% Triton X-100, 5% glycerol, 1 mM DTT; 50-100 nM protein, 2 nM biotin probe; room temperature 30 min; 6% native PAGE, 0.5x TBE, 4 C
Conditions: protein: recombinant; (Ni resin); label: biotin; blunt

MeCP2 WT (human), sequence (P51608 whole entry): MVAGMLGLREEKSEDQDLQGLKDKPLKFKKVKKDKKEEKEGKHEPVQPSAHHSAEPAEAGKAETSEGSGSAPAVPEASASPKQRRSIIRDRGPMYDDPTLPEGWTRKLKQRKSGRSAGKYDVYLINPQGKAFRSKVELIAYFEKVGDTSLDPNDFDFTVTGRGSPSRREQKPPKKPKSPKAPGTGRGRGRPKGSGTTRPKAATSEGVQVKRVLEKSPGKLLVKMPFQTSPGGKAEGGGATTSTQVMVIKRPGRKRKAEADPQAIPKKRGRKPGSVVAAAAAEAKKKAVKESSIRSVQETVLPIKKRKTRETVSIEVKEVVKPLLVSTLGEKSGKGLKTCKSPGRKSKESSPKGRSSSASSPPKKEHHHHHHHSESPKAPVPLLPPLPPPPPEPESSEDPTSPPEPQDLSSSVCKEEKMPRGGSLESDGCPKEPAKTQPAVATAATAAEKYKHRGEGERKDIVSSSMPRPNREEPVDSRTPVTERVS

Row | Binder | binding result
1 | B1 | binds
2 | B2 | binds
